Data as given in PMC3303803, “Identification of the First Functional Toxin-Antitoxin System in Streptomyces” (PLoS ONE, 2012).

T1: YefM-His6sl (antitoxin);YoeB-His6sl (toxin) (Streptomyces lividans 1326?;Streptomyces lividans 1326?), ORF:ca022027+Q9Z4V8
T1 sequence 1: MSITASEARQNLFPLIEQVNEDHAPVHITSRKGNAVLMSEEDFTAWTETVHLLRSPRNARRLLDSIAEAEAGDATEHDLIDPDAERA
T1 sequence 2: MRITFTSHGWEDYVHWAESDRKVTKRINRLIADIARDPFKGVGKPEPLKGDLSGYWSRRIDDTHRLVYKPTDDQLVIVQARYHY

T2: YefMsl-YoeBsl antitoxin (untagged YefM of natural complex);YoeB-His6sl (toxin) (Streptomyces lividans 1326?;Streptomyces lividans 1326?), ORF:ca022027+Q9Z4V8
T2 sequence 1: T1 sequence 1
T2 sequence 2: T1 sequence 2

T3: S. lividans antitoxin YefM-His6sl (Streptomyces lividans, UniProt Q9Z4V7 1-87)
T3 construct: YefMsl, putative antitoxin of the yefM/yoeBsl operon of Streptomyces lividans 1326; identical to S. coelicolor SCO2235 (YefMsc); 9.7 kDa; Cloned with primers LS-005/LS-022 between NdeI and XhoI of pET22b; also called YefMsl; source: E. coli BL21 (DE3), pET22b-Anti, purified (NTA-Ni, dialysis); not shown: His6, C-terminal, kept
T3 sequence (looked up): T1 sequence 1

B1: S. lividans toxin YoeB-His6sl (natural protein, Streptomyces lividans, UniProt Q9Z4V8 1-84, looked up)
chain: T1 sequence 2
notes: also called YoeBsl; toxin-His6; not shown: His6, C-terminal, kept

What was measured:
[1] = tested on: T1, YefM-His6sl (antitoxin);YoeB-His6sl (toxin) (Streptomyces lividans 1326?;Streptomyces lividans 1326?), ORF:ca022027+Q9Z4V8; assay: EMSA
[2] = tested on: T2, YefMsl-YoeBsl antitoxin (untagged YefM of natural complex);YoeB-His6sl (toxin) (Streptomyces lividans 1326?;Streptomyces lividans 1326?), ORF:ca022027+Q9Z4V8; assay: EMSA
[3] = target: T3, S. lividans antitoxin YefM-His6sl; assay: native gel or EMSA; details: both partners purified

| Molecule | binding [1] | binding [2] | binding result [3] |
| --- | --- | --- | --- |
| TTTTTTCATATGACCAGTGCCTCCCTTCCTCGGCTGGTACAAGATATCGTACGAGTCTGGGACGGTCCACCGGAAAGCGGGAGCGGTACGTCCCGGCGCCCGCACGCCGTTCCCCGGCTACGCTCAGCCCGTACGACCTTGATCCGACCGGGCCCACGTGCCCCGCAGCCCGACAGGAGGCCGAGAATTCAAAAAA (double strand) [TA promoter (yefM/yoeBsl intergenic region)] | binds | binds |  |
| B1 |  |  | binds |
